Experimental data from publication PMC10746276.
pKd: −log10 of the molar value.

Target: CsrA-His6 (Escherichia coli) (UniProt P69913)
Assay: EMSA
Conditions: EMSA: 0.1 nM RNA, 10 mM MgCl2, 100 mM KCl, 32.5 ng yeast RNA, 20 mM DTT, 7.5% glycerol, 4 U SUPERasin, 30 min 37 C (pH not given), footprint: 2 nM RNA

Chain of CsrA-His6 (Escherichia coli) (P69913 whole entry): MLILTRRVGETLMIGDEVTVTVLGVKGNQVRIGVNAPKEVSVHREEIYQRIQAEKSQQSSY

| Substance | pKd | pKd (second shifted species at 30 nM CsrA and higher) |
| --- | --- | --- |
| yqjD leader full-length, BS4 mutant (CUGGA to GUGGA) | 7.60 | – |
| yqjD leader WT, full-length (yqjC-yqjD intercistronic RNA) | 8.10 | 8.05 |
